Measurements as given in patent US20020111306A1.
“And” between values parts separate entries of the source, which are not always exact repeats. Equal entries are not always repeated. Blank lines part the entries; values can stand above or below the molecule they belong to.

Tests used:
[1] = target: human MCH1 receptor (MCH1) encoded by plasmid TL231 (pEXJ.HR-TL231) (human); assay: cell-based or functional assay
[2] = target: human MCH1 receptor (MCH1) encoded by plasmid TL231 (pEXJ.HR-TL231) (human); assay: radioligand binding, membranes of Cos-7 cells transfected with MCH1, 0.1 nM radioligand, filtration; nonspecific binding defined with 10 µM unlabeled MCH
[3] = target: human MCH1 receptor (MCH1) encoded by plasmid TL231 (pEXJ.HR-TL231) (human); assay: radioligand binding, membranes of Cos-7 cells transfected with MCH1, 0.1 nM radioligand, filtration
[4] = target: mutant human MCH1 receptor encoded by plasmid R114 (M6A, M70A) (human) (UniProt Q99705); assay: cell-based or functional assay
[5] = target: mutant (short form) human MCH1 receptor encoded by plasmid BO120 (human); assay: cell-based or functional assay
[6] = target: human MCH1 receptor (MCH1) encoded by plasmid TL231 (pEXJ.HR-TL231) (human); assay: cell-based or functional assay; remark: listed apart in the source

human MCH1 receptor (MCH1) encoded by plasmid TL231 (pEXJ.HR-TL231) (human), sequence (chain, as listed by the source limits assumed): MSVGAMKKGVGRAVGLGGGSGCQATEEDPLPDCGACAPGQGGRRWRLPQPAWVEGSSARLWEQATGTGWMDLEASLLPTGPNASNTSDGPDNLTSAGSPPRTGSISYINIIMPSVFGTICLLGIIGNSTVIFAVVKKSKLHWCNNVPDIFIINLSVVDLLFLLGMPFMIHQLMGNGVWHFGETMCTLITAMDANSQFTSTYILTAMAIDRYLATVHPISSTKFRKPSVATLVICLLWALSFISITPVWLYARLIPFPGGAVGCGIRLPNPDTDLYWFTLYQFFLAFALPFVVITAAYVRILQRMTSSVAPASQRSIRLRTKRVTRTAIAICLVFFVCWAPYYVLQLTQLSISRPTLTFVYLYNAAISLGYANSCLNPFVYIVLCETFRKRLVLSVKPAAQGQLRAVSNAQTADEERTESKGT
UniProt Q99705, sequence (Q99705 whole entry, stated change not applied): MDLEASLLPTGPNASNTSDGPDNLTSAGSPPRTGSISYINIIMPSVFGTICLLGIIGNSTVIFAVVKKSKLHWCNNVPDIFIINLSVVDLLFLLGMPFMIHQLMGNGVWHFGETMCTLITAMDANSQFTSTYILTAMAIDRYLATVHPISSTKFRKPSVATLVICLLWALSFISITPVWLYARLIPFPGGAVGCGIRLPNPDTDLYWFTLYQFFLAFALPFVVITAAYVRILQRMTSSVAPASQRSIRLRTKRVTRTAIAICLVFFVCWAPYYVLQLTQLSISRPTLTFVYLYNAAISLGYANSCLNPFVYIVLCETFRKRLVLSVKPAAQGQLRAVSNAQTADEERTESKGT

EC50 of extracellular acidification rate (microphysiometer), CHO cells transiently transfected with MCH1 [1]: 51.8 nM
Molecule: Phe^13,Tyr^19-MCH (from UniProt P20382 147-165) (peptide)

specific binding (fmol/mg membrane protein) [2]: 80
specific binding as percent of total binding (% of total binding) [3]: 70
Molecule: [^125I]Phe^13,Tyr^19-MCH (from UniProt P20382 147-165) (peptide)

Max. Response (RFU), mobilization of intracellular calcium (FLIPR, fluo-3), COS-7 cells [4]: 2270 RFU and 1550 RFU
EC50 (nM), mobilization of intracellular calcium (FLIPR, fluo-3), COS-7 cells [5]: 3.5 nM
Max. Response (RFU), mobilization of intracellular calcium (FLIPR, fluo-3), COS-7 cells [5]: 30000 RFU and 25000 RFU
EC50 (nM), mobilization of intracellular calcium (FLIPR, fluo-3), COS-7 cells [6]: 60 nM
inositol phosphate (IP) production, Cos-7 cells co-transfected with MCH1 and a G alpha subunit, 10 µM MCH [6]: 1.4 fold
Molecule: DFDMLRCMLGRVYRPCWQV (peptide, UniProt P20382 147-165, looked up) [melanin concentrating hormone (MCH)]
